Numbered stars: 1 amine (or outer) side, 2 acyl side, 3 side chain; on linkers, the order of the positions; unused ones are H or OH. Bridge positions count the residues as written; N and C are the ends. Side chains are listed from the residue outwards. Ends that are not written are not given here. * marks the point of attachment. C20 diacid = O=C(O)CCCCCCCCCCCCCCCCCCC(=O)*; C18 diacid = O=C(O)CCCCCCCCCCCCCCCCC(=O)*; C16 diacid = O=C(O)CCCCCCCCCCCCCCC(=O)*; γGlu = O=C(O)[C@H](CCC(=O)[*:2])N[*:1]; C14 diacid = O=C(O)CCCCCCCCCCCCC(=O)*
Tests used:
rat calcitonin receptor [1] = target: T1, rat calcitonin receptor (rat, UniProt P32214 25-516); assay: ratio IC50 rat calcitonin receptor / IC50 rat amylin receptor (reference)
T1 construct: whole, on cells; Membranes of transiently transfected BHK tk'ts 13 cells (Assay VIII); also called rCTR
T1 sequence (looked up): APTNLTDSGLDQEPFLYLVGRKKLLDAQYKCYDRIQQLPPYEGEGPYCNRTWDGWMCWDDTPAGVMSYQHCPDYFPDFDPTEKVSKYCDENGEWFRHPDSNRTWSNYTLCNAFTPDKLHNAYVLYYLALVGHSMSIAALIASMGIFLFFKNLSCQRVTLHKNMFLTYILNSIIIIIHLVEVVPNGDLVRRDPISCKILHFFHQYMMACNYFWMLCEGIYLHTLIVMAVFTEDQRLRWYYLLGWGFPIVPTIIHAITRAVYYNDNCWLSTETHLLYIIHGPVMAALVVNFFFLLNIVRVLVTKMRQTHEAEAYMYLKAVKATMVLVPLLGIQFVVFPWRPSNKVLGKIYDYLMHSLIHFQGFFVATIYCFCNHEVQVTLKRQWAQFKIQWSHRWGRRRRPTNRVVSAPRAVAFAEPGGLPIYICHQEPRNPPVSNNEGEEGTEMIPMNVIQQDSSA

[2] = target: T2, human calcitonin receptor (human, UniProt P30988 25-474); assay: ratio IC50 human calcitonin receptor / IC50 human amylin receptor (reference)
T2 construct: whole, on cells; Membranes of a stably transfected BHK cell line (Assay VII); also called hCTR; hCT
T2 sequence (looked up): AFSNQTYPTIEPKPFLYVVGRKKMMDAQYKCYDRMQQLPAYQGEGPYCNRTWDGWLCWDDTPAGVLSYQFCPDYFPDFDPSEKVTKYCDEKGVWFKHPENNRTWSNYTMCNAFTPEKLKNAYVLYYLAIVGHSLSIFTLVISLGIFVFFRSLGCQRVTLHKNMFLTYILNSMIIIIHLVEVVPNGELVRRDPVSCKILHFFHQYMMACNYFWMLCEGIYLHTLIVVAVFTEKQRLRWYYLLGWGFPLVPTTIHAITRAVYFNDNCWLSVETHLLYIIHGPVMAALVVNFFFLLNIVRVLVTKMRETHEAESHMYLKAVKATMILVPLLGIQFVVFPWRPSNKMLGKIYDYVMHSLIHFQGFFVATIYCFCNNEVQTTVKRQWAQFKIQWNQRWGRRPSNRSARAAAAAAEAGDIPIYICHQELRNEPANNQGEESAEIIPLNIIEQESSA
Experimental: The resulting pellet was resuspended, homogenized and centrifuged (20.000 rpm, 15 min) in a buffer containing 20 mM Na-HEPES and 0.1 mM EDTA (pH 7.4, buffer 2). The resulting pellet was resuspended in buffer 2 and protein concentration was measured (BCA protein Assay, Pierce). The homogenate was kept cold during the whole procedure. The membranes were kept at −80° C. until use. The assay was performed in a 384 well Optiplate (PerkinElmer) in a total volume of 40 ul. Membranes were mixed with SPA beads. Final concentration of membranes 35 ng/μL final and SPA beads was 0.05 mg/well. Test-compounds were dissolved in DMSO and further diluted in assay buffer (50 mM Hepes, pH 7.4, 1 mM CaCl2, 5 mM MgCl₂, 0.1% OA and 0.02% Tween20). […] The final mixture was incubated with shaking at 400 rpm for 120 min at 25° C. prior to centrifugation (1500 rpm, 10 min). Samples were analyzed on TopCounter™ (Packard). The IC₅₀ was calculated using (one site binding competition analysis) GraphPad Prism5 as a measure of receptor affinity.
Membranes were prepared in the following way; the cells were rinsed with PBS and incubated with Versene for approximately 5 min before harvesting. The cells were flushed with PBS and the cell-suspension was centrifuged for 5 min at 1000 rpm. Cells were homogenized (Ultrathurrax) in a buffer containing 20 mM Na-HEPES and 10 mM EDTA (pH 7.4) and centrifuged at 20.000 rpm for 15 min. The resulting pellet was resuspended, homogenized and centrifuged (20.000 rpm, 15 min) in a buffer containing 20 mM Na-HEPES and 0.1 mM EDTA (pH 7.4, buffer 2). The resulting pellet was resuspended in buffer 2 and protein concentration was measured (BCA protein Assay, Pierce). The homogenate was kept cold during the whole procedure. The membranes were kept at −80° C. until use. Assay was performed in a 384 well Optiplate (PerkinElmer) in a total volume of 40 ul. Membranes were mixed with SPA beads.

rat calcitonin receptor [3] = target: T1, rat calcitonin receptor; assay: SPA competition with 125I-calcitonin, membranes of BHK cells with rat calcitonin receptor (Assay VIII)
[4] = target: T3, rat amylin receptor (rat calcitonin receptor + rat RAMP 3) (rat, UniProt P32214 25-516; Q9JJ73 23-147); assay: SPA competition with 125I-rat amylin, membranes of BHK cells with rat calcitonin receptor + rat RAMP3 (Assay VI)
T3 construct: whole, on cells; Membranes of transiently transfected BHK tk'ts 13 cells (Assay VI); also called rAmylin-R; rat amylin 3(a) receptor
T3 sequence (looked up) 1: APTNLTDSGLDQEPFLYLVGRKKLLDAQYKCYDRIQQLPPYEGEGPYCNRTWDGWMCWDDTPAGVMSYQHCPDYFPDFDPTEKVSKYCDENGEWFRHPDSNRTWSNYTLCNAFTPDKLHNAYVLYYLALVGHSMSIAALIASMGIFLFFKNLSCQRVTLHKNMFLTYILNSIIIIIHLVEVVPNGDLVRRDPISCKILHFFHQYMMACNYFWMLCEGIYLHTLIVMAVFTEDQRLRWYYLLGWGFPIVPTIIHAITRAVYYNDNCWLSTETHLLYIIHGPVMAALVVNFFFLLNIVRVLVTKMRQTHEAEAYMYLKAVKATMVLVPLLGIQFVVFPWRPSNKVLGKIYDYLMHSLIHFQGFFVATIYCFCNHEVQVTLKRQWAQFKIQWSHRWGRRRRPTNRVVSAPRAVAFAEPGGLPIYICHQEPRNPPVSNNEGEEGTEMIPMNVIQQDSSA
T3 sequence (looked up) 2: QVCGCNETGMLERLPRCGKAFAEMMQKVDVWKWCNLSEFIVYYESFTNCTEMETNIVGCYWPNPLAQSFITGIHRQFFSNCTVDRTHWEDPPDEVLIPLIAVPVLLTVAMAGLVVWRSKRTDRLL

B1: N^ε1-[(4S)-4-carboxy-4-(13-carboxytridecanoylamino)butanoyl]-[Arg17,Pro21,Pro27,His34]-h-amylin (peptide)
peptide: K([γGlu-C14 diacid])CNTATCATQRLANFLRHSSPNFGAIPSSTNVGHNTY-NH2
modifications: disulfide 2-7; N-terminus assumed
SMILES: CC[C@H](C)[C@H](NC(=O)[C@H](C)NC(=O)CNC(=O)[C@H](Cc1ccccc1)NC(=O)[C@H](CC(N)=O)NC(=O)[C@@H]1CCCN1C(=O)[C@H](CO)NC(=O)[C@H](CO)NC(=O)[C@H](Cc1c[nH]cn1)NC(=O)[C@H](CCCNC(=N)N)NC(=O)[C@H](CC(C)C)NC(=O)[C@H](Cc1ccccc1)NC(=O)[C@H](CC(N)=O)NC(=O)[C@H](C)NC(=O)[C@H](CC(C)C)NC(=O)[C@H](CCCNC(=N)N)NC(=O)[C@H](CCC(N)=O)NC(=O)[C@@H](NC(=O)[C@H](C)NC(=O)[C@@H]1CSSC[C@H](NC(=O)[C@@H](N)CCCCNC(=O)CC[C@H](NC(=O)CCCCCCCCCCCCC(=O)O)C(=O)O)C(=O)N[C@@H](CC(N)=O)C(=O)N[C@@H]([C@@H](C)O)C(=O)N[C@@H](C)C(=O)N[C@@H]([C@@H](C)O)C(=O)N1)[C@@H](C)O)C(=O)N1CCC[C@H]1C(=O)N[C@@H](CO)C(=O)N[C@@H](CO)C(=O)N[C@H](C(=O)N[C@@H](CC(N)=O)C(=O)N[C@H](C(=O)NCC(=O)N[C@@H](Cc1c[nH]cn1)C(=O)N[C@@H](CC(N)=O)C(=O)N[C@H](C(=O)N[C@@H](Cc1ccc(O)cc1)C(N)=O)[C@@H](C)O)C(C)C)[C@@H](C)O
With B1 the “Ratio rCT/rAmylin binding” value (rat calcitonin receptor [1]) was 280, the “Ratio hCT/hAmylin binding” value [2] was 23.5 and the IC50 (rat calcitonin receptor [3]) was 707 nM. It also gave an IC50 [4] of 2.52 nM.

B2: N^ε1-[(4S)-4-carboxy-4-(17-carboxyheptadecanoylamino)butanoyl]-[Arg17,Pro21,Pro27,His34]-h-amylin (peptide)
peptide: K([γGlu-C18 diacid])CNTATCATQRLANFLRHSSPNFGAIPSSTNVGHNTY-NH2
modifications: disulfide 2-7; N-terminus assumed
SMILES: CC[C@H](C)[C@H](NC(=O)[C@H](C)NC(=O)CNC(=O)[C@H](Cc1ccccc1)NC(=O)[C@H](CC(N)=O)NC(=O)[C@@H]1CCCN1C(=O)[C@H](CO)NC(=O)[C@H](CO)NC(=O)[C@H](Cc1c[nH]cn1)NC(=O)[C@H](CCCNC(=N)N)NC(=O)[C@H](CC(C)C)NC(=O)[C@H](Cc1ccccc1)NC(=O)[C@H](CC(N)=O)NC(=O)[C@H](C)NC(=O)[C@H](CC(C)C)NC(=O)[C@H](CCCNC(=N)N)NC(=O)[C@H](CCC(N)=O)NC(=O)[C@@H](NC(=O)[C@H](C)NC(=O)[C@@H]1CSSC[C@H](NC(=O)[C@@H](N)CCCCNC(=O)CC[C@H](NC(=O)CCCCCCCCCCCCCCCCC(=O)O)C(=O)O)C(=O)N[C@@H](CC(N)=O)C(=O)N[C@@H]([C@@H](C)O)C(=O)N[C@@H](C)C(=O)N[C@@H]([C@@H](C)O)C(=O)N1)[C@@H](C)O)C(=O)N1CCC[C@H]1C(=O)N[C@@H](CO)C(=O)N[C@@H](CO)C(=O)N[C@H](C(=O)N[C@@H](CC(N)=O)C(=O)N[C@H](C(=O)NCC(=O)N[C@@H](Cc1c[nH]cn1)C(=O)N[C@@H](CC(N)=O)C(=O)N[C@H](C(=O)N[C@@H](Cc1ccc(O)cc1)C(N)=O)[C@@H](C)O)C(C)C)[C@@H](C)O
B2 was tested, and the “Ratio rCT/rAmylin binding” value (rat calcitonin receptor [1]) was 40.3, the “Ratio hCT/hAmylin binding” value [2] was 59.4 and the IC50 (rat calcitonin receptor [3]) was 47 nM. For the same binder, the IC50 [4] was 1.17 nM.

B3: N^ε1-[(4S)-4-carboxy-4-(15-carboxypentadecanoylamino)butanoyl]-[Arg17,Pro21,Pro27,His34]-h-amylin (peptide)
peptide: K([γGlu-C16 diacid])CNTATCATQRLANFLRHSSPNFGAIPSSTNVGHNTY-NH2
modifications: disulfide 2-7; N-terminus assumed
SMILES: CC[C@H](C)[C@H](NC(=O)[C@H](C)NC(=O)CNC(=O)[C@H](Cc1ccccc1)NC(=O)[C@H](CC(N)=O)NC(=O)[C@@H]1CCCN1C(=O)[C@H](CO)NC(=O)[C@H](CO)NC(=O)[C@H](Cc1c[nH]cn1)NC(=O)[C@H](CCCNC(=N)N)NC(=O)[C@H](CC(C)C)NC(=O)[C@H](Cc1ccccc1)NC(=O)[C@H](CC(N)=O)NC(=O)[C@H](C)NC(=O)[C@H](CC(C)C)NC(=O)[C@H](CCCNC(=N)N)NC(=O)[C@H](CCC(N)=O)NC(=O)[C@@H](NC(=O)[C@H](C)NC(=O)[C@@H]1CSSC[C@H](NC(=O)[C@@H](N)CCCCNC(=O)CC[C@H](NC(=O)CCCCCCCCCCCCCCC(=O)O)C(=O)O)C(=O)N[C@@H](CC(N)=O)C(=O)N[C@@H]([C@@H](C)O)C(=O)N[C@@H](C)C(=O)N[C@@H]([C@@H](C)O)C(=O)N1)[C@@H](C)O)C(=O)N1CCC[C@H]1C(=O)N[C@@H](CO)C(=O)N[C@@H](CO)C(=O)N[C@H](C(=O)N[C@@H](CC(N)=O)C(=O)N[C@H](C(=O)NCC(=O)N[C@@H](Cc1c[nH]cn1)C(=O)N[C@@H](CC(N)=O)C(=O)N[C@H](C(=O)N[C@@H](Cc1ccc(O)cc1)C(N)=O)[C@@H](C)O)C(C)C)[C@@H](C)O
With B3 the “Ratio rCT/rAmylin binding” value (rat calcitonin receptor [1]) was 327, the “Ratio hCT/hAmylin binding” value [2] was 18.5 and the IC50 (rat calcitonin receptor [3]) was 404 nM. For the same binder, the IC50 [4] was 1.24 nM.

B4: N^ε1-[(4S)-4-carboxy-4-(19-carboxynonadecanoylamino)butanoyl]-[Ala14,Arg17,Pro21,Pro27,His34]-h-amylin (peptide)
peptide: K([γGlu-C20 diacid])CNTATCATQRLAAFLRHSSPNFGAIPSSTNVGHNTY-NH2
modifications: disulfide 2-7; N-terminus assumed
SMILES: CC[C@H](C)[C@H](NC(=O)[C@H](C)NC(=O)CNC(=O)[C@H](Cc1ccccc1)NC(=O)[C@H](CC(N)=O)NC(=O)[C@@H]1CCCN1C(=O)[C@H](CO)NC(=O)[C@H](CO)NC(=O)[C@H](Cc1c[nH]cn1)NC(=O)[C@H](CCCNC(=N)N)NC(=O)[C@H](CC(C)C)NC(=O)[C@H](Cc1ccccc1)NC(=O)[C@H](C)NC(=O)[C@H](C)NC(=O)[C@H](CC(C)C)NC(=O)[C@H](CCCNC(=N)N)NC(=O)[C@H](CCC(N)=O)NC(=O)[C@@H](NC(=O)[C@H](C)NC(=O)[C@@H]1CSSC[C@H](NC(=O)[C@@H](N)CCCCNC(=O)CC[C@H](NC(=O)CCCCCCCCCCCCCCCCCCC(=O)O)C(=O)O)C(=O)N[C@@H](CC(N)=O)C(=O)N[C@@H]([C@@H](C)O)C(=O)N[C@@H](C)C(=O)N[C@@H]([C@@H](C)O)C(=O)N1)[C@@H](C)O)C(=O)N1CCC[C@H]1C(=O)N[C@@H](CO)C(=O)N[C@@H](CO)C(=O)N[C@H](C(=O)N[C@@H](CC(N)=O)C(=O)N[C@H](C(=O)NCC(=O)N[C@@H](Cc1c[nH]cn1)C(=O)N[C@@H](CC(N)=O)C(=O)N[C@H](C(=O)N[C@@H](Cc1ccc(O)cc1)C(N)=O)[C@@H](C)O)C(C)C)[C@@H](C)O
notes: also called compound 93
With B4 the “Ratio rCT/rAmylin binding” value (rat calcitonin receptor [1]) was 83.2, the “Ratio hCT/hAmylin binding” value [2] was 101 and the IC50 (rat calcitonin receptor [3]) was 131 nM. It also gave an IC50 [4] of 1.58 nM.

From patent US20140087995A1 (published 2014)
